Experimental data taken from doi:10.1101/2021.09.17.460839.

Molecular target: T1, Rv0792c (Mycobacterium tuberculosis) (UniProt O86331)
T1 sequence: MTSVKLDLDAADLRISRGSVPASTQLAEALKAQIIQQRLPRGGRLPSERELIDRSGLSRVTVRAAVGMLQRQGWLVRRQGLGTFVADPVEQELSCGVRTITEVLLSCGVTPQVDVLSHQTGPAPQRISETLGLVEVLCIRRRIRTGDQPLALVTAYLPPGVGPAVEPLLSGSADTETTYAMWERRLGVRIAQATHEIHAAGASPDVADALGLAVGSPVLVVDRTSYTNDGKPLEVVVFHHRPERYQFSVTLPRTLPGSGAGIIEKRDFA
Test: ALISA

Sequence | binding signal [% reduction] | Kd [nM]
TAGGGTCTCGGATCGGAGGGATGGGCAGTGTGTGCGGTATGTTG [Rv0792c_5 aptamer (printed Rv0729c_5)] | 90 | 
TCGTATTCATCTCTACATCCGGTAATCCGCACATGAGTAATCC [Rv0792c_1 aptamer (printed Rv0729c_1)] | 90 | 
TCTAGTCATTCGTCATAATCCCATCTGTTTCTTCCTCCTTCCGT [Rv0792c_2 aptamer (printed Rv0729c_2)] |  | 51
